Assay [1] has as its target insulin receptor of isolated rat adipocytes (rat, UniProt P15127 27-1383). The assay is described as follows: cell-based or functional assay.
For assay [2], the target named is T1, insulin receptor A (UniProt P06213-2 28-1370, limits assumed). The assay is described as follows: summary of Table 3; upper end tied by Table 3 to the compound of Example 5.8 (10.58).
The target in assay [3] is T1, insulin receptor A. Kind of assay: insulin receptor binding assay as in Vienberg et al. 2011; relative to human insulin on insulin receptor A (100%).
Assay [4] concerns the target T1, insulin receptor A. Kind of assay: summary of Table 3; lower end tied by Table 3 to the compound of Example 5.31 (0.47).

Experimental findings from US20200261595A1 (Novo Nordisk, published 2020) are described below.

T1 sequence (P06213 other isoform, or with tags, fused parts or gaps limits assumed): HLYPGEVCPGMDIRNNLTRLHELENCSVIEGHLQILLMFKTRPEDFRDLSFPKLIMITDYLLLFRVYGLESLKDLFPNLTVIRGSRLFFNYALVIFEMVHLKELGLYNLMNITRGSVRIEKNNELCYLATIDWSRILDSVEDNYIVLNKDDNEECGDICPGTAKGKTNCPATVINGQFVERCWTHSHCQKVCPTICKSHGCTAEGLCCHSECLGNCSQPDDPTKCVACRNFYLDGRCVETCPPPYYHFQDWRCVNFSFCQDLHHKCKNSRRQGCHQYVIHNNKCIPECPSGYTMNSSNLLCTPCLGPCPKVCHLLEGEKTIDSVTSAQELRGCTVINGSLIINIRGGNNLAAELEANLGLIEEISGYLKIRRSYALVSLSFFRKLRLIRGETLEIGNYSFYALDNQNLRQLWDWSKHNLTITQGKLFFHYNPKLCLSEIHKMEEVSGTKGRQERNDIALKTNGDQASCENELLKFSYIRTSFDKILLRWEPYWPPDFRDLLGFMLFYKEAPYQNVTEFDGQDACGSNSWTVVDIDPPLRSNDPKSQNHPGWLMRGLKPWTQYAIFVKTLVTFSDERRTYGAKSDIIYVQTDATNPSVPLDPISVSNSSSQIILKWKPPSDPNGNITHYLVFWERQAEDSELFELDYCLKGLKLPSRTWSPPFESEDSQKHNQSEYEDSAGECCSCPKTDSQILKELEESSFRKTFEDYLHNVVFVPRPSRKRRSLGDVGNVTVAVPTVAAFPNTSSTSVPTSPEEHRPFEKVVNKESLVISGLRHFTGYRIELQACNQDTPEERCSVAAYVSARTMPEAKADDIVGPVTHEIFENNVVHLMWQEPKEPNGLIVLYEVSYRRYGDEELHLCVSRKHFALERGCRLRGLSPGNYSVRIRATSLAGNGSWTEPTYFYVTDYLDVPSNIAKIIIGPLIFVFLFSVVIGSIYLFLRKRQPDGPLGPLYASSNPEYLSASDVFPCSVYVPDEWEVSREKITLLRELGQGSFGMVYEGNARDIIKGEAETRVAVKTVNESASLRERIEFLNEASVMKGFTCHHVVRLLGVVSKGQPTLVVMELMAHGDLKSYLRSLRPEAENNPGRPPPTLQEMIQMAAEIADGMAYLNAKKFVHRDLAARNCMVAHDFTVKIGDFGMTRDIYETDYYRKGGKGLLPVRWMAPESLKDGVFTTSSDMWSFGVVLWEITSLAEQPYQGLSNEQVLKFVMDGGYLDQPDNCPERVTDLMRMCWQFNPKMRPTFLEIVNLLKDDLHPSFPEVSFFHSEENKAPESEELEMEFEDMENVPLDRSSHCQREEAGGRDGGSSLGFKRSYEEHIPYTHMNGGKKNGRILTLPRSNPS
insulin receptor of isolated rat adipocytes, sequence (P15127 27-1383): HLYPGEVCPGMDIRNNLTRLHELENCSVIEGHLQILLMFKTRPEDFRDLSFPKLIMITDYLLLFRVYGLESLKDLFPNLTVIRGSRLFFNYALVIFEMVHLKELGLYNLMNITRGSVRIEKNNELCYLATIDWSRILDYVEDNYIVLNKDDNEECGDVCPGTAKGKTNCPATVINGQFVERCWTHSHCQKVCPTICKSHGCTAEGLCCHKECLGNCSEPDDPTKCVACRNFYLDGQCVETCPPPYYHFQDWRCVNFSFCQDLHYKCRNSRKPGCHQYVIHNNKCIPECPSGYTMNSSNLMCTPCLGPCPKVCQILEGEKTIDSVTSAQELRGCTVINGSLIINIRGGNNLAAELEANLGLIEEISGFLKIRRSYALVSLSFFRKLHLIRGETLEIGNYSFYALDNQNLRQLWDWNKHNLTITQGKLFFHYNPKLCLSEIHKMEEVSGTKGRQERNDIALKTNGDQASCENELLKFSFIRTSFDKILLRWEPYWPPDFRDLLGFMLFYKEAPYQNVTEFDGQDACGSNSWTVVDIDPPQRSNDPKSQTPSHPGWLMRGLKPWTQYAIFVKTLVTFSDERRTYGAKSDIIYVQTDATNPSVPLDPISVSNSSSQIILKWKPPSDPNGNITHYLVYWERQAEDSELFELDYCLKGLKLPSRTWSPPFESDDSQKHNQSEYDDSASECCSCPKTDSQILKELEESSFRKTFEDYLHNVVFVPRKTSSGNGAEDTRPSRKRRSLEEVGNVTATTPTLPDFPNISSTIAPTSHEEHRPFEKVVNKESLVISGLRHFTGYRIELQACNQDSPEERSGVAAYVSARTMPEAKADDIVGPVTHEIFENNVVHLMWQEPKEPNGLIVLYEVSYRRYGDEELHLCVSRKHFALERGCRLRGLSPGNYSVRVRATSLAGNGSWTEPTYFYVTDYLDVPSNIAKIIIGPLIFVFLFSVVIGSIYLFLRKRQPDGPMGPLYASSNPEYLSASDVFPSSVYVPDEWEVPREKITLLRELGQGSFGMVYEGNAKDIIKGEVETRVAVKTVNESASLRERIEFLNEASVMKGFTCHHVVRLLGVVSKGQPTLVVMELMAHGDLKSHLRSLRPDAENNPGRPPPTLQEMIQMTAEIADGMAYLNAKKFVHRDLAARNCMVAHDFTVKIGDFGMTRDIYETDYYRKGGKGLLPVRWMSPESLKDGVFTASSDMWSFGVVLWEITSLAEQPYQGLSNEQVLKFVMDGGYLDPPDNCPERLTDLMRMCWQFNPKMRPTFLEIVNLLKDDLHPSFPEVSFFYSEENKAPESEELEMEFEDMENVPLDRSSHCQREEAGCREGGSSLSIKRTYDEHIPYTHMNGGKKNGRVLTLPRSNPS

B1: A14E, A21G, A22(GQEP)12, A70K^, A71P, B25H, B29R, desB30 human insulin/(227A, 234A, 235K hIgG4-Fc(228-447)) … (other)
chain 1: GIVEQCCTSICSLEQLENYCGGQEPGQEPGQEPGQEPGQEPGQEPGQEPGQEPGQEPGQEPGQEPGQEPKP
chain 2: FVNQHLCGSHLVEALYLVCGERGFHYTPR
chain 3: ASCPAPEAKGGPSVFLFPPKPKDTLMISRTPEVTCVVVDVSQEDPEVQFNWYVDGVEVHNAKTKPREEQFNSTYRVVSVLTVLHQDWLNGKEYKCKVSNKGLPSSIEKTISKAKGQPREPQVYTLPPSQEEMTKNQVSLTCLVKGFYPSDIAVEWESNGQPENNYKTTPPVLDSDGSFFLYSRLTVDKSRWQEGNVFSCSVMHEALHNHYTQKSLSLSLGK
modifications: Cys229 (EU numbering) sulphur bound to an acetyl arm of the linker; A70K N(eps) acylated by the trivalent linker 4-[bis[2-[(2-acetyl)amino]ethyl]amino]-4-oxo-butanoyl
notes: also called Ex 5.8
Regarding B1, the “Lipogenesis in rat adipocytes [Potency (%)] Mean Value” in assay [1] was 5.31 % of human insulin. Further, the “insulin receptor affinity relative to human insulin” value in the assay with insulin receptor A [2] lay in the range of 0.5 to 10%. The “Insulin receptor affinity [IC50 relative to HI (%)]” value with insulin receptor A [3] was 10.6%.

B2: A14E, A21G, A22(GQAPGQAPGQEP)6-GQAP, A98K^, A99P, B3Q, B25H, B29R, desB30 human insulin/(227A, 234A, 235K hIgG4-Fc(228-447)) … (other)
chain 1: GIVEQCCTSICSLEQLENYCGGQAPGQAPGQEPGQAPGQAPGQEPGQAPGQAPGQEPGQAPGQAPGQEPGQAPGQAPGQEPGQAPGQAPGQEPGQAPKP
chain 2: FVQQHLCGSHLVEALYLVCGERGFHYTPR
chain 3: ASCPAPEAKGGPSVFLFPPKPKDTLMISRTPEVTCVVVDVSQEDPEVQFNWYVDGVEVHNAKTKPREEQFNSTYRVVSVLTVLHQDWLNGKEYKCKVSNKGLPSSIEKTISKAKGQPREPQVYTLPPSQEEMTKNQVSLTCLVKGFYPSDIAVEWESNGQPENNYKTTPPVLDSDGSFFLYSRLTVDKSRWQEGNVFSCSVMHEALHNHYTQKSLSLSLGK
modifications: Cys229 (EU numbering) sulphur bound to an acetyl arm of the linker; A98K N(eps) acylated by the trivalent linker 4-[bis[2-[(2-acetyl)amino]ethyl]amino]-4-oxo-butanoyl
notes: also called Ex 5.5
As to B2, the “Lipogenesis in rat adipocytes [Potency (%)] Mean Value” in assay [1] was 2.21 % of human insulin. Also, in the assay with insulin receptor A [3], the “Insulin receptor affinity [IC50 relative to HI (%)]” value stood at 3.34%.

B3: A14E, A21G, A22(GQEP)6, A46K^, A47P, B25H, B29R, desB30 human insulin/(227A, 234A, 235K hIgG4-Fc(228-447)) … (other)
chain 1: GIVEQCCTSICSLEQLENYCGGQEPGQEPGQEPGQEPGQEPGQEPKP
chain 2: FVNQHLCGSHLVEALYLVCGERGFHYTPR
chain 3: ASCPAPEAKGGPSVFLFPPKPKDTLMISRTPEVTCVVVDVSQEDPEVQFNWYVDGVEVHNAKTKPREEQFNSTYRVVSVLTVLHQDWLNGKEYKCKVSNKGLPSSIEKTISKAKGQPREPQVYTLPPSQEEMTKNQVSLTCLVKGFYPSDIAVEWESNGQPENNYKTTPPVLDSDGSFFLYSRLTVDKSRWQEGNVFSCSVMHEALHNHYTQKSLSLSLGK
modifications: Cys229 (EU numbering) sulphur bound to an acetyl arm of the linker; A46K N(eps) acylated by the trivalent linker 4-[bis[2-[(2-acetyl)amino]ethyl]amino]-4-oxo-butanoyl
notes: also called Ex 5.7
For the molecule B3, the “Lipogenesis in rat adipocytes [Potency (%)] Mean Value” in assay [1] was 1.88 % of human insulin. The “Insulin receptor affinity [IC50 relative to HI (%)]” value with insulin receptor A [3] was determined as 2.43%.

B4: (A14E, A21G, A22(GQEP)19, A98K^, A99P, B25H, B29R, desB30 human insulin)/(227A, 234A, 235K hIgG4-Fc(228-447)) … (other)
chain 1: GIVEQCCTSICSLEQLENYCGGQEPGQEPGQEPGQEPGQEPGQEPGQEPGQEPGQEPGQEPGQEPGQEPGQEPGQEPGQEPGQEPGQEPGQEPGQEPKP
chain 2: FVNQHLCGSHLVEALYLVCGERGFHYTPR
chain 3: ASCPAPEAKGGPSVFLFPPKPKDTLMISRTPEVTCVVVDVSQEDPEVQFNWYVDGVEVHNAKTKPREEQFNSTYRVVSVLTVLHQDWLNGKEYKCKVSNKGLPSSIEKTISKAKGQPREPQVYTLPPSQEEMTKNQVSLTCLVKGFYPSDIAVEWESNGQPENNYKTTPPVLDSDGSFFLYSRLTVDKSRWQEGNVFSCSVMHEALHNHYTQKSLSLSLGK
modifications: Cys229 (EU numbering) sulphur bound to an acetyl arm of the linker; A98K N(eps) acylated by the trivalent linker 4-[bis[2-[(2-acetyl)amino]ethyl]amino]-4-oxo-butanoyl
notes: Fc made in E. coli; also called Ex 5.1
Consider B4, for which the “Lipogenesis in rat adipocytes [Potency (%)] Mean Value” in assay [1] was 6.69 % of human insulin. For the same molecule, in the assay with insulin receptor A [3], the “Insulin receptor affinity [IC50 relative to HI (%)]” value came to 5.07%.

B5: (A14E, A21G, A22(GQAP)18, A94G, A95Q, A96A, A97K^, A98P, B16E, B25H, B29R, desB30 human insulin)/(227A, 234A, 235K, 297E, 315Q, 384Q, des447 hIgG4-Fc(228-447)) … (other)
chain 1: GIVEQCCTSICSLEQLENYCGGQAPGQAPGQAPGQAPGQAPGQAPGQAPGQAPGQAPGQAPGQAPGQAPGQAPGQAPGQAPGQAPGQAPGQAPGQAKP
chain 2: FVNQHLCGSHLVEALELVCGERGFHYTPR
chain 3: ASCPAPEAKGGPSVFLFPPKPKDTLMISRTPEVTCVVVDVSQEDPEVQFNWYVDGVEVHNAKTKPREEQFESTYRVVSVLTVLHQDWLQGKEYKCKVSNKGLPSSIEKTISKAKGQPREPQVYTLPPSQEEMTKNQVSLTCLVKGFYPSDIAVEWESQGQPENNYKTTPPVLDSDGSFFLYSRLTVDKSRWQEGNVFSCSVMHEALHNHYTQKSLSLSLG
modifications: Cys229 (EU numbering) sulphur bound to an acetyl arm of the linker; A97K N(eps) acylated by the trivalent linker 4-[bis[2-[(2-acetyl)amino]ethyl]amino]-4-oxo-butanoyl
With B5, the “Lipogenesis in rat adipocytes [Potency (%)] Mean Value” in assay [1] was 0.6 % of human insulin. In addition, the “insulin receptor affinity relative to human insulin” value in the assay with insulin receptor A [4] was in the range of 0.5 to 10%. The “Insulin receptor affinity [IC50 relative to HI (%)]” value with insulin receptor A [3] is 0.47%.
